Source: paper PMC7261152 (Nucleic Acids Research, 2020)

Molecular target: T1, human BCMA-Fc fusion protein (human, UniProt Q02223 1-54)
T1 sequence (looked up): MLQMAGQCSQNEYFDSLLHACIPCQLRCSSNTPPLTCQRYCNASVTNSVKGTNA
Experiment: ELISA

binding result: binds
B1: anti-BCMA DVD-IgG1 (2) (bispecific antibody)
light: DIQMTQSPSSLSASVGDRVTITCSASQDISNYLNWYQQKPGKAPKLLIYYTSNLHSGVPSRFSGSGSGTDFTLTISSLQPEDFATYYCQQYRKLPWTFGQGTKLEIKASTKGPELQMTQSPSSLSASVGDRVTITCRSSQSLLHTYGSPYLNWYLQKPGQSPKLLIYKVSNRFSGVPSRFSGSGSGTDFTLTISSLQPEDFAVYFCSQGTHLPYTFGGGTKVEIKRTVAAPSVFIFPPSDEQLKSGTASVVCLLNNFYPREAKVQWKVDNALQSGNSQESVTEQDSKDSTYSLSSTLTLSKADYEKHKVYACEVTHQGLSSPVTKSFNRGEC
heavy: not shown
